Reference: the DeepSol protein solubility set

assay: soluble on expression in E. coli; label from the status in PepcDB or PDB records

| Sequence | soluble on expression in E. coli |
| --- | --- |
| MSQTPPPKDGKNPEAMEVEDAIDEEILKMSTEDLKSRTHLLDNEIRIMRSEVQRINHSATTLKERIKENTERIKVNKTLPYLVSNVVELLDLEDNTEEEGANVDLDAQKTKCAVIKTSTRATYFLPVVGLVDPDELKPGDLVGVNKDSYLILEKLPAEYDSRVKAMEVDERPTEQYSDIGGCDKQIQELIEAVVLPMTHKDRFVNLGIHPPKGVLMYGPPGTGKTMMARAVAAQTKSTFLKLAGPQLVQMFIGDGAKLVRDAFALAKEKAPAIIFIDELDAIGTKRFDSEKAGDREVQRTMLELLNQLDGFQPNDDIKVIAATNRIDVLDPALLRSGRLDRKIELPHPNEDARARIMQIHSRKMNVNKDVNFEELARCTDDFNGAQCKAVCVEAGMIALRRDATEILHEDFMDAILEVQAKKKASLNYYA | not soluble |
| SSLLDGLASSPRAPLQSSKARMKKLPKKSQNEKYRLKYLRLRKAAKATVFENAAICDEIARLEEKFLKAKEERRYLLKKLLQLQALTEGEVQAAAPSHSSSLPLTYGVASSVGTIQGAGPISGPSTGAEEPFGKKTKKEKKEKGKENNKLEVLKKTCKKKKMAGGARKLVQPIALDPSGRPVFPIGLGGLTVYSLGEIITDRPGFHDESAIYPVGYCSTRIYASMKCPDQKCLYTCQIKDGGVQPQFEIVPEDDPQNAIVSSSADACHAELLRTISTTMGKLMPNLLPAGADFFGFSHPAIHNLIQSCPGARKCINYQWVKFDVCKPGDGQLPEGLPENDAAMSFEAFQRQIFDEDQNDPLLPGSLDLPELQPAAFVSSYQPMYLTHEPLVDTHLQHLKSPSQGSPIQSSD | soluble |
| MRLERTFDPNDLSTQNMESPICLPIGFVHFLAQSQTLQQVLDTVAEWINRIFESDRTSITLYENSDYLKVYSFSGNKAIPADFLVPIDQAFVGRVFKNQQLIICDDVSQSDELDCVMLTSSGMGTCMDAPLMHGQMCLGTLNVAHHQTHFYTKEQAAQLQCIANWIALNI | not soluble |
| MSRVGVMVLGPAGAGKSTFCNSIISHMQTVGRRAHIVNLDPAAEATKYEFTIDIRDLISLDDVMEEMDLGPNGALIYCFEYLLKNLDWLDEEIGDFNDEYLIFDCPGQIELYTHIPVLPNIVRHLTQQLNFNLCATYLLEAPFVIDSSKFFSGALSAMSAMILLELPHINVLSKLDLIKGDINKKKLKRFLNPDAMLLMETEGMNQASNPKFLRLNQCIANLVDDFGMVQFLPLESNNPDSIETILSYVDDITQWAEGQEQKEPNDQIDVEE | soluble |
| MSLTFDFFEGPAGSGKTFSMVAHARQLIESDALGEGQRMLALTFMNGARRRLTSNLNAEASFRRKFDCLTFDSFAQSLAKRRSAKLTDEMRQQAEELGQFHGPCFLACELLNDVEVRRWVARTYPLVLVDEAQDLDVHRQGIVLGLKECCTTVVAADSFQCLSDGQETADFIDRLLRAGTTHTLTQSHRTNKAGLLAAALAVRNGEDIRAVLNEEAIGKTNRVHWIGEGIELVEVPATARNSGLLAWNLAFQLRLGSDDVALLTPDSANTIIRNAIGTVASKQRPWPHNAFSVSWEGGDSSVADELAEAIGFPDTAPYDEVCALLEEHSAQPMVKTVIRRIRRLQRVTGQSEFEKAQLVSFISDAVRTNTRLGFKKSAKIKAMSIHGAKNREFDRVIVLWPQSATGSDEHKRRLLYNAMTRTKNHCTVIVLGTGRLNSAPFAEGHHHHHH | soluble |
| MAHHHHHHMRRVVASRKAICEYRLYSQVSPQGYPVTAVTPQQIRRVPFYRHRKLYDLTTRELSEEAIRDFLPPKPAVPAGWSMEHKIGSCRFDLTKTMGADDSAREDLHVVALMEPKKYEQTYRMDNGERNGEEYLVFNLFIKKHQHSGGVEFGLTSIDMELVMDSLVVHSTDREMDYSIGALGPGKTTSVGTSFGQKLNIECRRCRDYRYRGPMLNELDDDLTDEILDYLDERGVNNGFAEYMMAQAHFLEQEEYLNWLRLLKQFAT | not soluble |
| MITMKIEDVYIWDINARWLGVTPYQLMENAGASVARVIEEKFGKNLKIAVFCGTGNNGGDGFVAARHLSYENDVTVFLIGEEVKIRSEEAKLNWNILKNLDFVKIKVLKDSSQIRELDLSEFDIIVDALLGAGTRGKPREPIKSAIEKINEYSGKVKIVSIDLPSGYPSEIRVKADFAVTFQWDKEEFKDFKRIIAKIGYPKELKYLVGPAHVKFAYKRKGEHKGQNGKLLIIGGSENYYGAPVLAASAAKHLVDLVFLLLPQNAARRVNDPDLIVREVDGLNFTPEHIKSALELVEKVDAIVIGPGIGVREETKEFVKGIIERVEKPIVVDADGLKIIAEFKDILKGKEIVLTPHAGEFKLLFGEKVPEDLVEKGKVVMRRAKEIGATILLKGKYDVISDGKVWLYNKTGNRGMTTGGTGDVLAGTVGAFLALGNKALKAAAAGAFLVGFAGDLVMEEKGEAFTARDVAEKIPIALKKIIEF | soluble |
| MSLTNFVGSVLEATKEAIRALNPQNSTIYESLMVGAGGDVSLKADLMCEEILSARLRHFGHIHSEESGLIEGESQDIIYLDPLDGSTNLSSLIPYYGTSVALCDPEGRTKAAAVINFCSGETFIKTDAFALHGSIWQPIDTFVPIRPLEHASKIGIFEGSHRNAPWVLGLHQKGLKFRSPGAIALSMAYAHNVSFVLFDGEIREYDTKAGLFLCSDLHIHHDERALLISRDPIIFENLLELISQKGEGHHHHHH | soluble |
| MQKNNNKLTMSARFGEWYKEATENCAERELYATSLIARMDWVVDPISSKSYRYDLTTDLNKNHSSAWYDVATEICNKRKETVIRAILEDNIKIENF | soluble |
| MKKRNSMKLASLTVLLAGTTLFTPGFTVKAESTQSISNSSKVHDQKNRNGWKQVMQETIKIGAPGVLAKTSNKGKISSYTAGVADLSTKKPVKSDYRFRIGSVTKTFTATTVLQLVGENRVQLDDSIEKWLPGLIQGNGYDGNQITIRQLLNHTSGIAEYLKSKDADIMNSKKTYTAEEIVKIGLALPSDFSPGKGWSYSNTGYVILGMLIEKITGNSYAEEIEKRIIEPLDLPNTFLPGNSPVIPGKNHARGYVKMEETGELKDITYYNPSLANAAGDMISNADDLNKFFSSLLGGKLLKERELKEMLTTVPIEGKGIGDGYGLGIYETKLPNGVSVWGHGGSIPGFMTFAGGVIGGKHTFAVNVNSLGPVDILTQFDKMMQVEFNK | not soluble |
| MDGVVIKNTGSQYLVRCTDGTELYCMAKGNLRLKGIRSTNPVTVGDRVEIVPASQDGQPAYIKRIHPRRNYIIRRASNLSKESHILGANLDAAVLVCTINDPVTTTVFIDRFLATAEAYRVPVILVFNKIDCYTQEDRLQLDRLSAVYTAIGYPCCHVSAITGEGLPDLKSLLDGKLTLLAGHSGVGKSSLINALIPHADLRTGAISQAHHTGMHTTTFSQMIDFPDLSPGSALIDTPGIKGFGTLEMGEYEVSHYFPEIFAASKGCRFGNCTHTHEPGCAVLEALRRGEIAESRYISYLSILEDENAERYRPEY | not soluble |
| MSLKNQKPLAELLRPSTLEEYFGQNKLIGEQTLLRSLLKSQEIPSLILWGPPGCGKTTLAHIIASSIKQKGTGRFVTLSATSASVSDVREVIKQAQNELRLCKRKTVLFIDEIHRFNKSQQDTFLPHVECGTITLIGATTENPSFQVNSALLSRCRVLVLERLSVEAVGSILRRAVDFLDLRILDSEERHSSEICSEAQVCVEQKALDTLAHLCDGDARAALNGLQLAVQACVLQSSSNHNRSSTVVREQHIKEALQRSHILYDKAGEEHYNCISALHKSMRGSDANAALYWLARMLEGGEDPLYVARRLVRFASEDIGLADPVALSQAVAAFQACHLIGMPECEVILAQCAVYLARAPKSVEVYKAYNNVKMCLRNHKGPLPSVPLHLRNAPTKLMKNLGYAKGYKYNPNYSGPVKQEYLPEELRGVDFFTWTPSEGHHHHHH | not soluble |
| MSLGNASMTKTDIATRVHNHTWKLDPIVRSLIDTDFYKLLMLQMIWKLYPEVDATFSLINRTKTVRLAEEIDEMELREQLDHARTLRLSKKENIWLAGNTFYGRSQIFEPEFLSWLSSYQLPEYELFKRDGQYELNFHGRWMDTTLWEIPALSIINELRSRSAMRSLGYFTLDVLYARAKAKMWEKVERLRELPGLRISDFGTRRRHSFLWQRWCVEALKEGIGPAFTGTSNVLLAMDSDLEAVGTNAHELPMVVAALAQTNEELAAAPYQVLKDWNRLYGGNLLIVLPDAFGTAAFLRNAPEWVADWTGFRPDSAPPIEGGEKIIEWWRKMGRDPRTKMLIFSDGLDVDAIVDTYRHFEGRVRMSFGWGTNLTNDFAGCAPKTIASLKPISIVCKVSDANGRPAVKLSDNPQKATGDPAEVERYLKFFGEEDHKEQKVLVEGHHHHHH | soluble |
| SFKKFDEKENVSNCIQLKTSVIKGIKNQLLEQFPGIEPWLNQIMPKKDPVKIVRCHEHIEILTVNGELLFFRQREGPFYPTLRLLHKYPFILPHQQVDKGAIKFVLSGANIMCPGLTSPGAKLYPAAVDTIVAIMAEGKQHALCVGVMKMSAEDIEKVNKGIGIENIHYLNDGLWHMKTYK | soluble |
| SVERIYQKKTQLEHILLRPDTYIGSVELVTQQMWVYDEDVGINYREVTFVPGLYKIFDEILVNAADNKQRDPKMSCIRVTIDPENNLISIWNNGKGIPVVEHKVEKMYVPALIFGQLLTSSNYDDDEKKVTGGRNGYGAKLCNIFSTKFTVETASREYKKMFKQTWMDNMGRAGEMELKPFNGEDYTCITFQPDLSKFKMQSLDKDIVALMVRRAYDIAGSTKDVKVFLNGNKLPVKGFRSYVDMYLKDKLDETGNSLKVIHEQVNHRWEVCLTMSEKGFQQISFVNSIATSKGGRHVDYVADQIVTKLVDVVKKKNKGGVAVKAHQVKNHMWIFVNALIENPTFDSQTKENMTLQPKSFGSTCQLSEKFIKAAIGCGIVESILNWVKFKAQVQLNKKCS | soluble |
| MSTSSHTVLLIQTSPRLDSRTWGDYESVTDALDALCKMFEDFLSKKSAAPVTYDVSQVYEFLDKLSDVSMMIFNRETGQYIGRTRAWIKQQVYEMMRGRCQHPEGGEKVIVGY | not soluble |
| GMKRVLLLFDVDGTLTPPRLCQTDEMRALIKRARGAGFCVGTVGGSDFAKQVEQLGRDVLTQFDYVFAENGLLAYRNGLEIHRQSLLNALGNDRIVKFVKKTLRLIADLDIPVQRGTFVEYRNGMINVSPIGRNCSQAERDEFEVYDNEHRVRASLIAELENSFPDFGLKYSIGGQISFDVFPVGWDKTYCLQFVEDDFEEIHFFGDKTQEGGNDYEIYTDKRTIGHKVTSYKDTIAEVEKIIAMK | soluble |
| MSLNIAMTGATGYIGKHLSNYLTEKGGHRIIPLGRAMFREGMSGLLVQTLTHCDVIINLAGAPINQRWTPEHKQELFNSRITVTHRIIRALNAVKTKPKLMISASAVGYYPSLVESDEYTQTRGDGFLSDLCYAWEKEAKRCPQPTRLVITRFGVVLSPDGGAMQQMLRPLRATKVAAVIGPGTQPFPWIDIRDLCCAMAFFIENEELRGVFNLVAPQAVSQSTFTRAMGKAYHAWTTLIVPQAVFRLFYGEAASFLTAGQRVRPTRLLEAGFHFSVPTIEKLFEGEGHHHHHH | soluble |
| MKKRLLLSTFLASTLILTGCASDQSDNEDHHTSTGIHAPKSAKKLETKDIFNSDKKNSDISDAEMKQAIEKYLSVNSDILDNKYIMQHKLDKQIDSQTKVTEKQAETLSHLSNLAVKNDLHFKKFVTENNIPKEYKKPVELMMNYFKALNSTIANVDEDIEKLSYQPQNKINVVDVPTKYAGDVNKKQQDKIKDFLKSKGIKSDVIDK | not soluble |
| MVRESIPKEGENIKIQSYKHDGKIHRVWSETTILKGTDHVVIGGNDHTLVTESDGRTWITREPAIVYFHSEYWFNVICMFREDGIYYYCNLSSPFVCDEEALKYIDYDLDIKVYPNGKYHLLDEDEYEQHMNQMNYPHDIDIILRRNVDILQQWIEQKKGPFAPDFIKVWKERYKKIRQY | soluble |
